77 sequences from the supplement of paper PMC7877785 can be followed below.

This series can be described thus: self-splicing fitness, log relative to wild type (ln ratio); higher = more splicing; Tetrahymena group I intron in knt gene, E. coli kanamycin selection, DiMSum; sequences stand for … in CUCUCU…GGAGGGAAAAGUUAUCAGGCAUGCACCUGGUAGCUAGUCUUUAAACCAAUAGAUUGCAUCGGUUUAAAAGGCAAGACCGUCAAAUUGCGGGAAAGGGGUCAACAGCCGUUCAGUACCAAGUCUCAGGGGAAACUUUGAGAUGGCCUUGCAAAGGGUAUGGUAAUAAGCUGACGGACAUGGUCCUAACCACGCAGCCAAGUCCUAAGUCAACAGAUCUUCUGUUGAUAUGGAUGCAGUUCACAGACUAAAUGUCGGUCGGGGAAGAUGUAUUCUUCUCAUAAGAUAUAGUCGGACCUCUCCUUAAUGGGAGCUAGCGGAUGAAGUGAUGCAACACUGGAGCCGCUGGGAACUAAUUUGUAUGCGAAAGUAUAUUGAUUAGUUUUGGAGUACUCGUGGUCG
Put shortly: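 Pooled colonies went to amplicon sequencing on an Illumina HiSeq 2500 after six replicate transformations. The plates were LB agar with 100 μg/mL carbenicillin, 50 μM IPTG and 0.2% rhamnose, with or without 25 μg/mL kanamycin, incubated overnight at 37°C or 30°C. The E. coli BL21(DE3) library had all eight P1ex-region intron nucleotides randomised, the intron placed in the knt kanamycin-resistance gene on pET-22b(+). DiMSum fitness is the error-weighted combination of replicate fold changes, kanamycin against none, normalised to wild type.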

± gives the uncertainty stated by the source.

Take UGGAAGCAAUAUUACGGAGA: the “self-splicing fitness (ln)” value reads like this: (30 °C) -2.7 ± 0.22; (37 °C) -1.31 ± 0.13.
In the same order, the values of GGACAGCAAUAUUACGGUUU are -2.12 ± 0.072 and -0.504 ± 0.073.
As for UCUCAGCAAUAUUACGAAAG, the “self-splicing fitness (ln)” value is -1.9 ± 0.26 (30 °C) and -1.36 ± 0.21 (37 °C).
The corresponding values for AUUCAGCAAUAUUACGCGUU are -0.912 ± 0.07 and -0.348 ± 0.081.
For GGAGAGCAAUAUUACGAGUA, the “self-splicing fitness (ln)” value reads like this: (30 °C) -3.36 ± 0.41; (37 °C) -2.48 ± 0.32.
The corresponding values for GAUUAGCAAUAUUACGGGCG are -1.63 ± 0.15 and -1.33 ± 0.17.
As for AUCCAGCAAUAUUACGAGUA, the “self-splicing fitness (ln)” value by setting is: (30 °C) -2.01 ± 0.18; (37 °C) -1.07 ± 0.12.
The corresponding values for AAGGAGCAAUAUUACGUAGG are -3.12 ± 0.22 and -2.02 ± 0.44.
On to CAGCAGCAAUAUUACGUAAG, for which the “self-splicing fitness (ln)” value was -0.365 ± 0.046 (30 °C) and 0.0316 ± 0.067 (37 °C).
For AAGGAGCAAUAUUACGGAGG, the “self-splicing fitness (ln)” value is, setting by setting: (30 °C) -2.97 ± 0.22; (37 °C) -1.59 ± 0.23.
In the same order, the values of CAAUAGCAAUAUUACGGUCU are -3.24 ± 0.31 and -3.15 ± 0.35.
In the same order, the values of CUUCAGCAAUAUUACGUCGA are -4.35 ± 0.46 and -2.95 ± 0.3.
AGGUAGCAAUAUUACGGCUU: the “self-splicing fitness (ln)” value by setting is: (30 °C) -0.489 ± 0.015; (37 °C) -0.184 ± 0.034.
The corresponding values for CUUCAGCAAUAUUACGCGAU are -2.85 ± 0.32 and -1.19 ± 0.38.
On to ACGCAGCAAUAUUACGGUUA, for which the “self-splicing fitness (ln)” value by setting is: (30 °C) -1.13 ± 0.077; (37 °C) -1.04 ± 0.062.
In the case of CCUGAGCAAUAUUACGACCG, the “self-splicing fitness (ln)” value (30 °C) is -3.73 ± 0.39 and the “self-splicing fitness (ln)” value (37 °C) is -2.5 ± 0.37.
In the same order, the values of UCGAAGCAAUAUUACGCAGA are -2.28 ± 0.2 and -2.85 ± 0.27.
The corresponding values for CGGGAGCAAUAUUACGGAGU are -3.92 ± 0.27 and -2.77 ± 0.2.
In the same order, the values of UUCUAGCAAUAUUACGGAAU are -4.1 ± 0.39 and -1.91 ± 0.33.
Consider AGGGAGCAAUAUUACGUGCG, for which the “self-splicing fitness (ln)” value by setting is: (30 °C) -2.99 ± 0.2; (37 °C) -2.4 ± 0.29.
In the same order, the values of CCUUAGCAAUAUUACGAUCC are -2.32 ± 0.4 and -2.74 ± 0.49.
In the same order, the values of CCUUAGCAAUAUUACGGUGC are -3.75 ± 0.19 and -3.01 ± 0.25.
In the same order, the values of UUGAAGCAAUAUUACGGCGA are 0.203 ± 0.088 and 0.256 ± 0.12.
With ACAGAGCAAUAUUACGGUGG, the “self-splicing fitness (ln)” value is, setting by setting: (30 °C) -4.17 ± 0.23; (37 °C) -3.01 ± 0.32.
The corresponding values for GUAAAGCAAUAUUACGCAGG are -1.96 ± 0.12 and -0.168 ± 0.14.
In the same order, the values of CCACAGCAAUAUUACGCUUU are -4.05 ± 0.25 and -2.18 ± 0.19.
In the same order, the values of GAUCAGCAAUAUUACGAUUC are -3.05 ± 0.38 and -1.79 ± 0.27.
With GUCGAGCAAUAUUACGGCUU, the “self-splicing fitness (ln)” value (37 °C) was -0.65 ± 0.49.
Regarding UGACAGCAAUAUUACGUAAU, the “self-splicing fitness (ln)” value was -2.19 ± 0.099 (30 °C) and -0.915 ± 0.15 (37 °C).
In the same order, the values of UCUGAGCAAUAUUACGCAAA are -2.8 ± 0.33 and -1.27 ± 0.19.
On to CCAUAGCAAUAUUACGUUUC, for which the “self-splicing fitness (ln)” value was -3.12 ± 0.15 (30 °C) and -0.309 ± 0.2 (37 °C).
In the same order, the values of UCCGAGCAAUAUUACGCGUG are -2.6 ± 0.12 and -1.3 ± 0.1.
In the same order, the values of CGAGAGCAAUAUUACGCGAA are -2.39 ± 0.27 and -1.89 ± 0.37.
In the same order, the values of GCGUAGCAAUAUUACGUACA are -1.1 ± 0.16 and -1.23 ± 0.14.
For the sequence AAACAGCAAUAUUACGGCCU, the “self-splicing fitness (ln)” value was -1.51 ± 0.064 (30 °C) and -0.591 ± 0.071 (37 °C).
In the case of CAGGAGCAAUAUUACGCUAC, under “30 °C”, the “self-splicing fitness (ln)” value was -1.78 ± 0.4.
In the case of GGCUAGCAAUAUUACGUUUC, the “self-splicing fitness (ln)” value was -0.818 ± 0.11 (30 °C) and -0.182 ± 0.12 (37 °C).
Regarding UGAAAGCAAUAUUACGUGUU, the “self-splicing fitness (ln)” value (30 °C) was -3.21 ± 0.13 and the “self-splicing fitness (ln)” value (37 °C) was -1.44 ± 0.11.
Take GGCUAGCAAUAUUACGGCCU: the “self-splicing fitness (ln)” value (30 °C) is -3.3 ± 0.35.
Take AAAAAGCAAUAUUACGACGA: the “self-splicing fitness (ln)” value (30 °C) came to 0.0233 ± 0.084 and the “self-splicing fitness (ln)” value (37 °C) is -0.502 ± 0.1.
Turning to CCCAAGCAAUAUUACGCUCC, the “self-splicing fitness (ln)” value (37 °C) was -1.68 ± 0.42.
With AUCUAGCAAUAUUACGCGGU, the “self-splicing fitness (ln)” value by setting is: (30 °C) -2.85 ± 0.18; (37 °C) -2.73 ± 0.26.
In the same order, the values of GGCAAGCAAUAUUACGAUCA are -0.849 ± 0.12 and -0.349 ± 0.098.
The corresponding values for GACAAGCAAUAUUACGUUAA are -2.19 ± 0.12 and -1.71 ± 0.15.
As for UGAAAGCAAUAUUACGGGGU, the “self-splicing fitness (ln)” value (30 °C) was -3.55 ± 0.2 and the “self-splicing fitness (ln)” value (37 °C) is -2.48 ± 0.18.
In the same order, the values of CGUAAGCAAUAUUACGAGUA are -4.09 ± 0.39 and -1.93 ± 0.21.
In the same order, the values of CGCGAGCAAUAUUACGACAC are -3.42 ± 0.49 and -1.36 ± 0.41.
In the case of CCCUAGCAAUAUUACGGGAA, the “self-splicing fitness (ln)” value (30 °C) was -3.63 ± 0.25 and the “self-splicing fitness (ln)” value (37 °C) is -3.08 ± 0.19.
In the same order, the values of CCCCAGCAAUAUUACGGCCU are -3.02 ± 0.29 and -2.82 ± 0.47.
Turning to CUGAAGCAAUAUUACGCAAA, where the note is “30 °C”, the “self-splicing fitness (ln)” value was -4.27 ± 0.42.
Turning to UGUAAGCAAUAUUACGAACU, the “self-splicing fitness (ln)” value was -0.349 ± 0.12 (30 °C) and -0.682 ± 0.12 (37 °C).
The corresponding values for AUAUAGCAAUAUUACGGUUU are -1.31 ± 0.091 and -0.854 ± 0.11.
In the same order, the values of CCCCAGCAAUAUUACGUUGC are -3.41 ± 0.12 and -2.78 ± 0.17.
Consider GCGCAGCAAUAUUACGCCAC, for which, where the note is “37 °C”, the “self-splicing fitness (ln)” value was -1.17 ± 0.36.
With GUGUAGCAAUAUUACGGUUA, the “self-splicing fitness (ln)” value (30 °C) was -0.588 ± 0.14 and the “self-splicing fitness (ln)” value (37 °C) was -0.936 ± 0.17.
In the same order, the values of UCGUAGCAAUAUUACGUCAU are -3.23 ± 0.35 and -2.17 ± 0.33.
In the same order, the values of AAUAAGCAAUAUUACGCAGC are -3.5 ± 0.26 and -2.1 ± 0.23.
In the same order, the values of GCACAGCAAUAUUACGAACA are -1.42 ± 0.11 and -0.85 ± 0.1.
For the sequence UUUGAGCAAUAUUACGCGGU, the “self-splicing fitness (ln)” value (30 °C) was -2.67 ± 0.28 and the “self-splicing fitness (ln)” value (37 °C) is -2.37 ± 0.35.
In the case of CAUUAGCAAUAUUACGCUAC, the “self-splicing fitness (ln)” value by setting is: (30 °C) -3.99 ± 0.4; (37 °C) -2.13 ± 0.46.
In the same order, the values of UGUCAGCAAUAUUACGAAUG are 0.0484 ± 0.12 and 0.565 ± 0.12.
For CCUCAGCAAUAUUACGGUGU, the “self-splicing fitness (ln)” value was -3.9 ± 0.27 (30 °C) and -1.76 ± 0.16 (37 °C).
In the same order, the values of GGUGAGCAAUAUUACGCUUA are -3.17 ± 0.35 and -1.92 ± 0.33.
In the same order, the values of AUUCAGCAAUAUUACGUGAC are -3.05 ± 0.44 and -1.84 ± 0.35.
As to UCAAAGCAAUAUUACGAGCG, the “self-splicing fitness (ln)” value is -0.712 ± 0.088 (30 °C) and -0.172 ± 0.11 (37 °C).
The corresponding values for UGCUAGCAAUAUUACGAUCA are 0.384 ± 0.07 and 0.522 ± 0.094.
In the same order, the values of UAGCAGCAAUAUUACGCUGG are -2.87 ± 0.13 and -2.45 ± 0.15.
Regarding CUGCAGCAAUAUUACGUGAG, the “self-splicing fitness (ln)” value reads like this: (30 °C) -0.703 ± 0.067; (37 °C) 0.216 ± 0.093.
In the same order, the values of CUAAAGCAAUAUUACGGGAA are -3.28 ± 0.2 and -2.1 ± 0.17.
With CGCAAGCAAUAUUACGGCUG, the “self-splicing fitness (ln)” value (30 °C) is -1.33 ± 0.065 and the “self-splicing fitness (ln)” value (37 °C) came to 0.0892 ± 0.085.
For the sequence UAAAAGCAAUAUUACGAGGU, the “self-splicing fitness (ln)” value is, setting by setting: (30 °C) -4.31 ± 0.3; (37 °C) -1.59 ± 0.17.
In the same order, the values of AGCAAGCAAUAUUACGGUGC are -1.6 ± 0.11 and -3.4 ± 0.22.
Take ACAUAGCAAUAUUACGAAUG: the “self-splicing fitness (ln)” value (30 °C) is -1.65 ± 0.1 and the “self-splicing fitness (ln)” value (37 °C) was -1.22 ± 0.13.
In the same order, the values of GGCAAGCAAUAUUACGGCUG are -1.68 ± 0.1 and -0.318 ± 0.16.
In the same order, the values of AAGCAGCAAUAUUACGAUCA are -1.28 ± 0.091 and -0.405 ± 0.11.
The corresponding values for UGCGAGCAAUAUUACGCCUA are -2.48 ± 0.19 and -0.762 ± 0.16.
Regarding GGACAGCAAUAUUACGGGGU, the “self-splicing fitness (ln)” value reads like this: (30 °C) -3.5 ± 0.17; (37 °C) -2.17 ± 0.12.
